Results taken from IntAct's records for PubMed 17693255.

B1: Hamartin (Homo sapiens), Q92574 (parent)
chain: MAQQANVGELLAMLDSPMLGVRDDVTAVFKENLNSDRGPMLVNTLVDYYLETSSQPALHILTTLQEPHDKHLLDRINEYVGKAATRLSILSLLGHVIRLQPSWKHKLSQAPLLPSLLKCLKMDTDVVVLTTGVLVLITMLPMIPQSGKQHLLDFFDIFGRLSSWCLKKPGHVAEVYLVHLHASVYALFHRLYGMYPCNFVSFLRSHYSMKENLETFEEVVKPMMEHVRIHPELVTGSKDHELDPRRWKRLETHDVVIECAKISLDPTEASYEDGYSVSHQISARFPHRSADVTTSPYADTQNSYGCATSTPYSTSRLMLLNMPGQLPQTLSSPSTRLITEPPQATLWSPSMVCGMTTPPTSPGNVPPDLSHPYSKVFGTTAGGKGTPLGTPATSPPPAPLCHSDDYVHISLPQATVTPPRKEERMDSARPCLHRQHHLLNDRGSEEPPGSKGSVTLSDLPGFLGDLASEEDSIEKDKEEAAISRELSEITTAEAEPVVPRGGFDSPFYRDSLPGSQRKTHSAASSSQGASVNPEPLHSSLDKLGPDTPKQAFTPIDLPCGSADESPAGDRECQTSLETSIFTPSPCKIPPPTRVGFGSGQPPPYDHLFEVALPKTAHHFVIRKTEELLKKAKGNTEEDGVPSTSPMEVLDRLIQQGADAHSKELNKLPLPSKSVDWTHFGGSPPSDEIRTLRDQLLLLHNQLLYERFKRQQHALRNRRLLRKVIKAAALEEHNAAMKDQLKLQEKDIQMWKVSLQKEQARYNQLQEQRDTMVTKLHSQIRQLQHDREEFYNQSQELQTKLEDCRNMIAELRIELKKANNKVCHTELLLSQVSQKLSNSESVQQQMEFLNRQLLVLGEVNELYLEQLQNKHSDTTKEVEMMKAAYRKELEKNRSHVLQQTQRLDTSQKRILELESHLAKKDHLLLEQKKYLEDVKLQARGQLQAAESRYEAQKRITQVFELEILDLYGRLEKDGLLKKLEEEKAEAAEAAEERLDCCNDGCSDSMVGHNEEASGHNGETKTPRPSSARGSSGSRGGGGSSSSSSELSTPEKPPHQRAGPFSSRWETTMGEASASIPTTVGSLPSSKSFLGMKARELFRNKSESQCDEDGMTSSLSESLKTELGKDLGVEAKIPLNLDGPHPSPPTPDSVGQLHIMDYNETHHEHS

Variants of: B1
Settings: with tsc2_human TSC2, P49815
tsc2_human TSC2, P49815, sequence (P49815 whole entry): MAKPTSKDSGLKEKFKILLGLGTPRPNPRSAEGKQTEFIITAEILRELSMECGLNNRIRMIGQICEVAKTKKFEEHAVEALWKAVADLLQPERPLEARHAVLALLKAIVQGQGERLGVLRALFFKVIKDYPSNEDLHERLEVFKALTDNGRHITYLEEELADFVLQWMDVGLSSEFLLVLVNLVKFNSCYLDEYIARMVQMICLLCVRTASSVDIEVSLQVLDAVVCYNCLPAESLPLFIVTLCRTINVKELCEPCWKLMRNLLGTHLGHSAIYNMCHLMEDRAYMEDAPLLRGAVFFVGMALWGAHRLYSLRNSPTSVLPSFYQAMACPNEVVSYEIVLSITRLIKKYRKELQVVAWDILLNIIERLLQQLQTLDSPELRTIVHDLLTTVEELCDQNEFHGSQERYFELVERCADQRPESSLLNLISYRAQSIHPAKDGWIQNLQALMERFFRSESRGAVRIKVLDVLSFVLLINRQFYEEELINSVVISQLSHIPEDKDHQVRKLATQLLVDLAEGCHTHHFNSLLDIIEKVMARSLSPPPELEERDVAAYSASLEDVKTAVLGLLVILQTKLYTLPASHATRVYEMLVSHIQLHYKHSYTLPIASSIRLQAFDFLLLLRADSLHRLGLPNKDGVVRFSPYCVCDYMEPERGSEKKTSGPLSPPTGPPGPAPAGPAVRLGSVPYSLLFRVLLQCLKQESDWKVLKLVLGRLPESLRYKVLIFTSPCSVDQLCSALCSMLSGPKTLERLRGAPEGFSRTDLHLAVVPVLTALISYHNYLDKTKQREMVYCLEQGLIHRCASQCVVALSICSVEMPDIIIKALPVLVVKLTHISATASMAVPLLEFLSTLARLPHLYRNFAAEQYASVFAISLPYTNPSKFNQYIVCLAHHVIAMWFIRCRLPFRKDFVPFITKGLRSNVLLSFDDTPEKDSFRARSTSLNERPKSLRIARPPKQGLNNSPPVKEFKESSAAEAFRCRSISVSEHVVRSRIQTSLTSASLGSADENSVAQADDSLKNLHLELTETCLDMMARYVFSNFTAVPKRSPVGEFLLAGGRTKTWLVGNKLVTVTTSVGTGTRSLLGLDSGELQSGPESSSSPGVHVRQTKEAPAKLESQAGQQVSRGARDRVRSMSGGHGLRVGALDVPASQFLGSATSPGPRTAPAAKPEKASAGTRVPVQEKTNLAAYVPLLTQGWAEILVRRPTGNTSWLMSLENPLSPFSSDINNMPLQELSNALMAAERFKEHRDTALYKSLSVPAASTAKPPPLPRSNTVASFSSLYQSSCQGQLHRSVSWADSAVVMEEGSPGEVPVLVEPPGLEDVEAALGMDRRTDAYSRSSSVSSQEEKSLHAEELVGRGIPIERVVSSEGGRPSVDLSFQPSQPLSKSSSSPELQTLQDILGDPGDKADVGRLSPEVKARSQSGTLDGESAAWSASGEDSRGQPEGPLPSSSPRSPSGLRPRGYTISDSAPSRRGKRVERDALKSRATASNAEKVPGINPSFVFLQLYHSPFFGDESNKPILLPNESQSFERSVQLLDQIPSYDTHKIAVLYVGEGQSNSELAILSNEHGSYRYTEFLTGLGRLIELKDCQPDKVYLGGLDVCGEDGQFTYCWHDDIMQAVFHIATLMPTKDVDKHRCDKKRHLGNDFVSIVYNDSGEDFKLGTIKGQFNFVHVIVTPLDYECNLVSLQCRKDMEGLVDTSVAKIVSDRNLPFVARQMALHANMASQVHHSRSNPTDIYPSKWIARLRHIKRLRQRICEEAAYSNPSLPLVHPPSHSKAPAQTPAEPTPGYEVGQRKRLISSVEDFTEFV

| effect of a mutation on the interaction | Variant |
| --- | --- |
| decreasing interaction | S487D;S511D |
